Source: the domain aggregation screens of Martell et al. (2025)

Experiment: soluble fraction after stress (log2 fold change); higher = more stays soluble; pooled small domains, quantitative proteomics
Details: stress: 50 degC
Procedure, shortened: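 After stress at 50°C, the amount of each protein still soluble was measured. This was done on pooled custom libraries of small protein domains, using high-throughput quantitative proteomics. The figure given is a base-two log fold change and stands for aggregation propensity, with higher values meaning more protein stays in solution.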

| Sequence | soluble fraction (log2) |
| --- | --- |
| HMGMVDKSMYSRYDVGDLVKVLRGPLEGSEGHITEINTDTGTVKVETVFFGRSTVVEVDFSEIDK | -0.281 |
| HMYPIYDYISNMYLGKHLNAGMSLEEARGIMDEMLEKLLFDVPEEYHIDRDHFYEYLKKYYTERFSA | -1.81 |
| HMQGISGIERSLLDALAFEPAGLDALQARTGLDTPTLQALLMGLELQGHVARLPGSLFQRLVR | -0.523 |
| HMERPLFVIEDYRRFAGNEVEISLKKGGKKIRGVIAGTPSDAEVTVRTQGGETTVPLGDVKRAHLVYV | 0.123 |
| HMKDYKSSLQERVQAVGGGQLIYRVNREEGPDHSKTFYMDLFLGDRLIGTGSGRNKKQAEQQAAKEAIERG | 0.0941 |
| HMEFQSIGGKIRIGREREHLTQAELAQKLSVTRQAVSNWERDKTLPDIYMIREIAEIFGLTLDEFMEGAKK | -0.672 |
| HMKGEIEELLYEEVTKDNNTTFLRIYIKLNDEYNTLLNLGIIGIKTEEKVNELVNLGYKKVL | -2.45 |
| HMSSPTAKATGSSVNIRKSASTGAAVLKRVEKGTVLEAVSISDGWVKVKYSGVTGYVSADYVKVSGL | -0.354 |
| HMNNQILYERLRDLRERNHFTQAFVSSKLNIGRATYSNYERGKRTPSLDVIMDLASFYKVPFTYF | -0.0166 |
| HMAEQDILQSVYPHIGGQDNVSRTISRNGTLYLMLKDASAVDLKAVKQVPGIADAALERGRLTLQLEE | 0.0398 |
| HMFYNSSDNAYKILEINKSATVDEIKAAYRKMAKKYHPDKVIHLGQEHQKGAEEKFRQVQEAYEELQKERG | 0.0887 |
| HMSEEKLVFSIPDDIETMRIDKAIALETHLSRAQIAELFKENKILLNSKNSKRSEKVKPGDKISLEFIPKI | -0.00517 |
| HMVTGSIYERKGIYYAIVSYYVDGRRKQKSVSTGLSVKGNKRRALEFLENLKRTYETKESMENMD | -3.16 |
| HMTDQYEVQNLVGLTVREAQEKEGVKDIFEVREVGSEFSAEYDAGLIVRQSPDAGEQRKGEGLVIEVWVSA | 0.0425 |
| HMGGLSAEQKNGIQSVLKNFDPKNLTSADAKSITSEFKKLGVQPGKDLETTMAASGFDAKEVGRLAF | 0.0781 |
| HMTLTEQQITDNYKELRKIINDTFSGLRLDKLNHMYDDLEDRMVVAPASSVEHYHNSKVGGYVEHILHVI | -0.187 |
| HMGTVFTDIMTDIASGKFPNVFPDSLEAQIQKNVTMAPDKLSATLQYGDKSVILPTTKGKEAAEAAVKAA | -0.0555 |
| HMSDEAGKVLQLLRENGGYLPYNDRSDPEDIYAFFSMSKKTFKMTAGNLYKQKKIIFTNTGIKLTE | -0.856 |
| HMDKATMRWEQIEKFLETHPYIMNADVRALFNVSAATANRILATLTTEGKLVKYREGGHWAYKY | -0.544 |
| HMKIQEVDYSTFLNMLNEKSIAQVEIQDNQIAFNSNQEGNKQIYVTGRIEEDTELVNRLQAAGVQFSRV | 0.079 |
| HMINFLSKREIEVLRLVADGLSNRDVGQYLFISESTVKRHLSTIYEKLAVKSRTQAIDHARRADL | -3.91 |
| HMVLANLQAAEQGDLGIKEGEKLTILQTRPDGWWTARNANGETGLVPK | 0.173 |
| HMVREVSYDQFLHFVEAKQVGMVYQDGESLMFTLKEDVEKEWGVTAYKTGLWPDANLTDRLLDAGVVFS | -0.715 |
| HMKTKTIMSTGAREDLVKMINEYYYSKNYIITEDNRIYNTKTEKFMDDLSVKFYRGRWKVIRN | -0.813 |
| HMTLGENLQNLRKEAGLSQEQVAQQLFVSRQTVSKWENNLAEPGVENLKALARLYGVTLDRLVGM | -0.0572 |

| Sequence | soluble fraction (log2) |
| --- | --- |
| HMNTGFPIILETSDAANLTVGAPIMYRGVEVGKIRNMELNSLGDRVLIHILIGHKYQHLVRQNSEFWFSS | -4.54 |
| HMTYFIADLIGLQVYTDSGELLGKVDDIYNSGSADIYVVKDELGKQILLPGIKDVIKQIDVDNEKIIVHLI | -0.885 |
| HMKIDLKQIEGVLDELAKVKGSLITILQKTQETYGYLPKEAIIYISERTGIAESEIMGVATFYTQFRL | -0.105 |
| HMSGNPLDTYYSKWSAEIKKGSPNAVISKEGDKYYVSIPGENRMAIIYENPHLIRMVNATRNIHVE | -0.168 |
| HMKGSIMIETILKELKKNNKGFNFLLEKFDISEDELMKIINDLIHDKKVFLNSNNKYEIVSD | -0.238 |
| HMARNHYETLGVGRTATGDEIRKAYRSEAQKHHPDRGGDAERMQSLNEARDTLLDDQARAAYDQELDL | 0.125 |
| HMTAIKAGDLVKITGTKYYGGQTIPGWVKNQNWYVQEVSGDRAVINKNESGTNAIMSPIRVSDLTPVS | 0.183 |
| HMEPLKLGDATGDGKINLQDVLEMQKHMAGILVLKGKFFTAADVNGNGKIELVDVLSVQKYLAGVTAEV | 0.00939 |
| HMRIVQTDYRNFLSQVESGAVRSVQIDETQIRYTALDSGGKEIVYNTGKVDDPGLVNRLYDAGVEFSQVIP | 0.0657 |
| HMVELPDLIGKSKRLAFTQLEISGLKIGKIIYEPDLAKDAVLKILYNGKIVKAGEQLPRFATVDLVLG | -0.0407 |
| HMNESPVLAVLTPTERKVASLVAEGLTNQAIAARMILAEGTVKNHVSTLLHKLQAPDRTALALTLYKAFQ | -0.469 |
| HMDLMQRVIIVRPVMQGDYLTRAHLGLQTLSRNGGGGFTDIDDLVGRRAKKSLRAGLVVHNRHL | -0.694 |
| HMTALPPNVSIDSDERRLLEAIGFDPVDMDVLARDGQFSSVDLFRLLVSLELKGLVENQHGAYQRL | -1.31 |
| HMAVSDAAEEYGKAGTPLVILAGKEYGSGSSRDWAAKGPYLQGVRAVLAESYERIHRSNLVGMGIVPLTYK | 0.0654 |
| HMRMETRILTADESGIRLDAFLASRLAVSRSLAASLIDDGNVTLNGTVPKKKTAVNVGDILEVAMP | -0.234 |
| HMISENFVEAKILLTEDNRPKSLEILKDIIRQHDKVYSPLSLFLILDEDLEENKEIILEYFDLVLS | -0.185 |
| HMNPYLWQRVRLLFSNVGVINNSATVDLVFSAPKGVLTEDLANNFSAALVKKGKEELGLDDIKITISVIPN | -2.94 |
| HMNAYEVLIPNIYIGQRVDQTLASLFPQFSRSRLQNWLARGNLLIDGEIIKPKTKVLGGEQIIILDT | -1.83 |
| HMTLSDIGHAVRTRRTELGLSQVQLARLSGLSRQTLVGLENGTLNDLGINRVAQLLAVLGLDAP | -0.827 |
| HMTSLAEQAYRHIRDKLSNGAFVPGEQLVNRVLATEIGVSVIPVREAINRLATEGLVKHVPGSGAFVRQ | 0.0904 |
| HMQYPSSLDSRAKQSLYDNLERNEILALALDNVIQSNKLDGWRDGGIKERKLRLAINNLLKNDEHTDNIME | -0.0155 |
| HMEDTVNVPIQINGKLRHVIQVQIGTSEEEIQKIALSEEQVKKFTDGHEILKVMVPKGKLVSIVI | -0.129 |
| HMALTLDEARTQGRVGETFYGYLVALKTDAETEKLVNDINAERKASYQQLAKQNNVSVDDIAKLAGQKLV | 0.0405 |
| HMFIPGDSVRVHVKVVEGSNERIQMFEGVVIARQGSGVRENFTVRRISYGVGIERTFPVHSPRL | 0.103 |
| HMYYHQIIGLDVVDENGNTLGKIKEILSPGANDVWVVKRKQKNDLLLPVIDDVIKDVDLAAGKVHVELLEG | -0.0975 |

| Sequence | soluble fraction (log2) |
| --- | --- |
| HMDYTPIEVKDLPQAIQDALTKNFSEYTVKSAAYQEDEDGVKIYQVTVVDEEGTEANIFFTEKGE | 0.0163 |
| HMGNRWENLISNKMIDDVDEELLRKYIAQAHDAGRIAISYTDRKTVLNQLELTDGDRLLNAGKVLFSD | -0.094 |
| HMFNLFPHLSVLRNITLAPQKVKGLNRSESNEIAMSLLERVGIPEQSDKFPSQLSGGQQQRVAIARALAM | -0.402 |
| HMEVLSKRGSTGTEVINIQKKLKNWGYYTGSVDGIYGKLTEEAVRYFQRTNGLTVDGIAGKNTLAAMGIA | -0.356 |
| HMGKVTILSNPVKDALVIMGLHNAETIDVRLFDNTGRLVMQGSQSRMDISSLSPGLYILQVNGKILKVIK | -2.21 |
| HMIAASQVLRDARQRSRLTQAELGRRADVPQSVISAYESARREPSVDMLARLVAAAGFDLRIGLTP | -0.541 |
| HMAPRSSAVYFYLSQVALKKNQPRKAEAMARRGLTVSQDANRRRALWQLILRSGQAQNNTRVIREAQQAL | 0.19 |
| HMRILGIDPGTRITGYGIIDIEGNRLRHVDNGIIKTRSSDALPLRLKVIYDGLTAVLKQYSPQAV | 0.0465 |
| HMAGWMPGGTNPAEPGRFAVLMDVDDSDAYKHMFLRWNGHAWEFERTRVLVKMEPSWWMRLPDDPEKP | -1.99 |
| HMQDEREEIAVEDVVGMPLWQARKVIADQGFRVLDDGAGDIVIAQMPSGGGKLIEGGQVMLYTYTD | 0.186 |
| HMEEFDLNAYITKINSAATLNALKQAYAEANSAALSVKDKDAQRKIIVEKDKRKAELIQETAG | 0.31 |
| HMNSKSFIFHIEDEEGIRLDVFLADNLPDVSRSYVQKLIDEEHVKVNGQSAKSRLKTVSGMEITVDVPAPK | -0.321 |
| HMQAKNGTVTGSVVNVRGGAGTQYAVKGKASRGTKVTILGQQSSWLNVRLDNGVTGWIHADYVQISE | 0.463 |
| HMGEKPTEITLSNAISVQELAEKLYVSETDIIRTLFLDGIIVNINQVLDLETAVKVGDQLGVTITIVE | -1.2 |
| HMRNSVQREWIYDYIQRQDAHLSADEIYEGLLKEGKNISLATVYRNLSILVDEYKIASVMTDSKKQVYDK | -1.23 |
| HMDEAEELYQAVQALKPKYREVILLHYYQGLRVGEIAAILRAPQSTVSIRLRRARQMLNRMLG | -0.548 |
| HMRMLTKRRQDLLLELLEERGSITVSEVKDMLDASESTIRRDITALDEEGKLVKVFGGAVAAR | -0.272 |
| HMGPVRRDLEINGRMVPLTIREHARATRITLRIEPGGQALRLTIPPGLPTREVDSFLTRHHGWLMTKLAHI | -1.79 |
| HMHQLQLDSRSRLHMTGVIEVESFDEATIVLTTTRGTLIVRGENLHLQLLRLDGGEVLVDGTVDSLSYE | -1.5 |
| HMGSKKITIYVSGEVKNPGIVTLNSDQRLASAVEKLGGVTENADMNNINLAMKLEDEMHYIIPKKGEK | 0.28 |
| HMSHDTLVYRLAQMLVKLNQGEKLDPQQLAEEFGVNLRTIQRDLNVRFAYLQLEKTDGRYHLDPTFL | -0.999 |
| HMHELKIEKVAEAPNGAMRLLLSDGSEWVLGVKSWNRLNLSLEKILDVNVLRALEKESQYHLLRTKALEL | -0.395 |
| HMQSDQLSDREREILRLIGSGRTNQEISQELQVSGSTVRTHLQHILDKLGLENRNQAVLYAIRIGLAAPP | -0.125 |
| HMIQTKKVTFTVEPTVNFEKINISGIEFKINSGSSITAIYEKNSHNFDEVLDFLKQKGVKILDIVTED | -0.118 |
| HMGGLIDQSIQEIIDKYSVPGKKIQKAQRLKIVAEMHTKGIFKMRGGVQQAAQALGVTRYTVYNDLEVMN | -2.89 |
